What was measured:
[1] = biological target: extradomain B of fibronectin (Homo sapiens, UniProt P02751); experiment: SPR control extradomain B of fibronectin; format: binding
Protocol: (§1) The purified proteins were immobilized on a CM-5 sensor chip (GE Healthcare) using NHS/EDC after PDEA activation resulting in 110-140 RU with a Biacore 3000 system (GE Healthcare). The chip was equilibrated with SPR running buffer (PBS 0.05% Tween pH 7.3). Upon binding, target analyte was accumulated on the surface increasing the refractive index. This change in the refractive index was measured in real time and plotted as response or resonance units versus time. The analytes were applied to the chip in serial dilutions with a flow rate of 30 μl/min. The association was performed for 120 seconds and the dissociation for 120 seconds. After each run, the chip surface was regenerated with 30 μl regeneration buffer (10 mM glycine pH 2.0) and equilibrated with running buffer.
(§2) Binding studies were carried out by the use of the BIAcore 3000 (GE Healthcare); data evaluation was operated via the BIAevaluation 3.0 software, provided by the manufacturer, using the Langmuir 1:1 model (RI=0). Evaluated dissociation constants (KD) were standardized against the immobilized protein and indicated. Shown is the change in refractive index measured in real time and plotted as response or resonance unit [RU] versus time [sec].

[2] = Soluble expression in Escherichia coli BL21(DE3); format: physicochemical; details: expression in E. coli BL21(DE3)
Protocol: Variants with affinity tag were expressed in Escherichia coli BL21(DE3) using a low copy plasmid system under regulation of a T7 promoter. Proteins were produced in soluble form after induction by lactose included in the medium (autoinduction medium). BL21 (DE3) competent cells were transformed with the expression plasmid, spread onto selective agar plates (kanamycin) and incubated overnight at 37° C. Precultures were inoculated from single colony in 3 ml 2×YT medium supplemented with 50 μg/ml kanamycin and cultured for 6 hours at 37° C. at 200 rpm in a conventional orbital shaker in culture tubes. […] Cultures were transferred to an orbital shaker and incubated at 30° C. and 200 rpm. […] Before the harvest, the OD600 was measured, samples adjusted to 0.6/OD600 were withdrawn, pelleted and frozen at −20° C. […]
Proteins with affinity tag were purified by affinity chromatography and size exclusion. […] Homogenous species of all purified ligands were obtained; no aggregation was detected. Following SOS-PAGE analysis positive fractions were pooled and their protein concentrations were measured. […] Protein concentrations were determined by absorbance measurement at 280 nm using the molar absorbent coefficient. […] Binding of Collagen II was evaluated by SPR measurements using a Biacore 3000 system. […]

human collagen type III = biological target: T1, human collagen type III (Homo sapiens, UniProt P02461); experiment: ELISA specificity vs human collagen type III; format: binding
T1 construct: purchased Abcam ab7535
T1 sequence (P02461 154-1221 limits assumed): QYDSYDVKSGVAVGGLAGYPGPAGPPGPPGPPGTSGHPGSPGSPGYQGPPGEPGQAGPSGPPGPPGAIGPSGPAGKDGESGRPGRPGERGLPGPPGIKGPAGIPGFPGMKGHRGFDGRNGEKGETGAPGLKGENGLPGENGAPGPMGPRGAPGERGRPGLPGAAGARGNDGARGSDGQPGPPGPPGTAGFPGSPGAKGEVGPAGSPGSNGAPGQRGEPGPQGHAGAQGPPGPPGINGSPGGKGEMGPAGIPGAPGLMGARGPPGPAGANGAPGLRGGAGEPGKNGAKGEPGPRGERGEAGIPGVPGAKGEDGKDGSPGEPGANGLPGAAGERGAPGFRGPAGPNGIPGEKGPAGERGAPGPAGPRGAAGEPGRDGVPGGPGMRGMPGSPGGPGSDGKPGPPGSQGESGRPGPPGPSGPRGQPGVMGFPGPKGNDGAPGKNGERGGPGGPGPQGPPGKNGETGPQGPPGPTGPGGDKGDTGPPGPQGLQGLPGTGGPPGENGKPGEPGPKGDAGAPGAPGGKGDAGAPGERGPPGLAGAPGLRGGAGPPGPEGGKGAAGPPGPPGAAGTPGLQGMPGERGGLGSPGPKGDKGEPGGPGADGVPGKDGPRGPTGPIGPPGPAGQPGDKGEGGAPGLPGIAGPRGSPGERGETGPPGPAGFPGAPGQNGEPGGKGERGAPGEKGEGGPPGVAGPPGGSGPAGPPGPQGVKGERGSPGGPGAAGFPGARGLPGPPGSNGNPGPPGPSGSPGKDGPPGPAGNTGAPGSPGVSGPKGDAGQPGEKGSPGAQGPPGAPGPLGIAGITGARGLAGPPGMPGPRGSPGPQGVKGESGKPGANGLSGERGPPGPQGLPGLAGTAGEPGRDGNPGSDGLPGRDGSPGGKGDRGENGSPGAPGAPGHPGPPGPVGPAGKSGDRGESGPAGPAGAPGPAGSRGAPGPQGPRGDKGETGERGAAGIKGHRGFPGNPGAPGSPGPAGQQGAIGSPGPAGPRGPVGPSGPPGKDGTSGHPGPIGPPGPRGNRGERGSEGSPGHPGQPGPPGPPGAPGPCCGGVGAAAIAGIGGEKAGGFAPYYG
Protocol: (§3) High binding plates (Greiner, 781061) were immobilized with 2.5 μg/ml recombinant human collagen type II (h Col II, Chondrex, CHX-20051), rabbit collagen type II (rbCol II, prepared from rabbit eyes), porcine collagen type II (p Col II, prepared from porcine eyes), human collagen type I, (h Col I, Sigma, C5483-1MG), human collagen type V (h Col V, Abcam, ab7537), human collagen type III (h Col Ill, Abcam, ab7535) and 67B89 (domain of fibronectin, produced in E. coli) respectively over night at 4° C. ELISA-plates were washed 3 times with PBST (PBS+ 0.1% Tween) and blocked with 3% BSA/0.5% Tween/PBS 2 h at RT. After washing with PBST, dilution series of 1.1 μM to 7×10^−4 nM of dimers (CID 211999, CID 212000), dilution series of 100 nM to 7×10^−6 nM of tetramers (CID 212001 and CID 212704) and dilution series of 10 μM to 2 nM of dimer (CID 212705) were incubated on ELISA-plates 1 h at rt. Plates were washed with PBST and incubated with biotinylated anti-StrepTag-ab (Antikörper-online, ABIN1573895) with a dilution of 1:10.000 for 1 h at rt. The binding was visualized with a-rabbit-IgG-HRP (Sigma, A9169) with a dilution of 1:10.000 and as substrate TMB Plus von KEM EN TEC Diagnostic, Kat-Nr. 4395.

BSA = BSA (Bos taurus, UniProt P02769); experiment: SPR control BSA; format: binding
Protocol: as §1, §2

Type I collagen = Type I collagen (Homo sapiens, UniProt P02452+P08123); experiment: SPR specificity vs Type I collagen; format: binding
Protocol: as §1, §2

Type III collagen = biological target: T2, Type III collagen (Homo sapiens, UniProt P02461); experiment: SPR specificity vs Type III collagen; format: binding
T2 sequence (P02461 154-1221 limits assumed): T1 sequence (P02461 154-1221 limits assumed)
Protocol: as §1, §2

[3] = biological target: T3, recombinant human collagen type II (h Col II) (Homo sapiens, UniProt P02458); experiment: KD-determination by ELISA vs human collagen type II; format: binding
T3 construct: purchased Chondrex CHX-20051
Protocol: as §3

[4] = biological target: T4, human collagen type I (h Col I) (Homo sapiens, UniProt P02452+P08123); experiment: ELISA specificity vs human collagen type I; format: binding
T4 construct: purchased Sigma C5483-1MG
Protocol: as §3

T3 sequence (P02458 182-1241): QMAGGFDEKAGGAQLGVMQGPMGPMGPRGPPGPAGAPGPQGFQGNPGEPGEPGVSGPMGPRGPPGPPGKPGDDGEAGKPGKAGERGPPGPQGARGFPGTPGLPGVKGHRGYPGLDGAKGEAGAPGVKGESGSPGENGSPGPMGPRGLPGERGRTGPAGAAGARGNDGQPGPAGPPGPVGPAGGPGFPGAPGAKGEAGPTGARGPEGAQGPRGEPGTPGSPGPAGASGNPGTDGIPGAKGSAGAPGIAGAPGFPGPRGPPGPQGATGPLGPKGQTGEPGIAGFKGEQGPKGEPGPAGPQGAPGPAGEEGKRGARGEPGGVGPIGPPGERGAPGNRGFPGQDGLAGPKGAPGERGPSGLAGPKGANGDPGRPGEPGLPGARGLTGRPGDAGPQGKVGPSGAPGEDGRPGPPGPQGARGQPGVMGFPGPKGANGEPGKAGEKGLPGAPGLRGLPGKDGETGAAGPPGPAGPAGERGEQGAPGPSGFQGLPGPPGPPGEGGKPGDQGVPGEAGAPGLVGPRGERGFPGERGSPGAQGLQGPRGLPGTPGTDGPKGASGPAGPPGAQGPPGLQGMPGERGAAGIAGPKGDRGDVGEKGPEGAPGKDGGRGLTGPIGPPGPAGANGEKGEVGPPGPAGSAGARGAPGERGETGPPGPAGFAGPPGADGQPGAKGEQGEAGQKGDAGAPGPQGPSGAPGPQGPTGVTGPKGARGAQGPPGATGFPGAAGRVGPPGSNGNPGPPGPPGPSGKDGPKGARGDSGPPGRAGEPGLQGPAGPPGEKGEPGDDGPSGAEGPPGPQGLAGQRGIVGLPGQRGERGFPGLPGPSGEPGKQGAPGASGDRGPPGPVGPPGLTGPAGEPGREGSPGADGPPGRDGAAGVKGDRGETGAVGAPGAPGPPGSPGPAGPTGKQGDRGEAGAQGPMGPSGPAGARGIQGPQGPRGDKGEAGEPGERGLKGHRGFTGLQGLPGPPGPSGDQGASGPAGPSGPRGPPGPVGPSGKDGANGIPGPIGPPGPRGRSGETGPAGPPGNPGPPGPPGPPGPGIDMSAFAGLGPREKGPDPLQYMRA
T4 sequence (P02452 162-1218 limits assumed): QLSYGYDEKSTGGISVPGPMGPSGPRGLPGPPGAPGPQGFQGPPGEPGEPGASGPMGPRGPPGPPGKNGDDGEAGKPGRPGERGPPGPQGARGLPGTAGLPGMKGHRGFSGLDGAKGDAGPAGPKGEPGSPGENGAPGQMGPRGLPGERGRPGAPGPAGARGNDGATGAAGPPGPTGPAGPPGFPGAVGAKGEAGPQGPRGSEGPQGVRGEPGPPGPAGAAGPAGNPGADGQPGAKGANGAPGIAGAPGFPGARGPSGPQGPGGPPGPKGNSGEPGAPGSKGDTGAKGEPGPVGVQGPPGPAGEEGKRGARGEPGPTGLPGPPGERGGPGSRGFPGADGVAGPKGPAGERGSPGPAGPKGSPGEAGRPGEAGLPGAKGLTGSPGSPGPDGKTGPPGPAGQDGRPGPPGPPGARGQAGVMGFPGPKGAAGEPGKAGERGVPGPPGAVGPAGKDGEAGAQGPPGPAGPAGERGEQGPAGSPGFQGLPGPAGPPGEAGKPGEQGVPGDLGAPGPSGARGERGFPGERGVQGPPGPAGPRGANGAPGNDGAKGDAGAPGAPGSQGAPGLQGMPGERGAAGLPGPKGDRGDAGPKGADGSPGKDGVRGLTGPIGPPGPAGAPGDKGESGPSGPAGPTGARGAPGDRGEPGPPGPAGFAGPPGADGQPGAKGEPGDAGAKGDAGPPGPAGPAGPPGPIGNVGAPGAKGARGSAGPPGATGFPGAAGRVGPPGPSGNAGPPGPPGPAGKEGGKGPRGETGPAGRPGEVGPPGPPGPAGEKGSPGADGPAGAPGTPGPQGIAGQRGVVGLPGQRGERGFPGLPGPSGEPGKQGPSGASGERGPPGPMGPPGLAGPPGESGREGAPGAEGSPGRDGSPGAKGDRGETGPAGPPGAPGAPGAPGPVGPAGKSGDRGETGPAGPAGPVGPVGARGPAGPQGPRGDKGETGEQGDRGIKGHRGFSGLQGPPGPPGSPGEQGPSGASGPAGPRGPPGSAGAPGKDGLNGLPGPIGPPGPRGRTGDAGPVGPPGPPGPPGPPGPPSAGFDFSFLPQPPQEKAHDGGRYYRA
T4 sequence (P08123 80-1119 limits assumed): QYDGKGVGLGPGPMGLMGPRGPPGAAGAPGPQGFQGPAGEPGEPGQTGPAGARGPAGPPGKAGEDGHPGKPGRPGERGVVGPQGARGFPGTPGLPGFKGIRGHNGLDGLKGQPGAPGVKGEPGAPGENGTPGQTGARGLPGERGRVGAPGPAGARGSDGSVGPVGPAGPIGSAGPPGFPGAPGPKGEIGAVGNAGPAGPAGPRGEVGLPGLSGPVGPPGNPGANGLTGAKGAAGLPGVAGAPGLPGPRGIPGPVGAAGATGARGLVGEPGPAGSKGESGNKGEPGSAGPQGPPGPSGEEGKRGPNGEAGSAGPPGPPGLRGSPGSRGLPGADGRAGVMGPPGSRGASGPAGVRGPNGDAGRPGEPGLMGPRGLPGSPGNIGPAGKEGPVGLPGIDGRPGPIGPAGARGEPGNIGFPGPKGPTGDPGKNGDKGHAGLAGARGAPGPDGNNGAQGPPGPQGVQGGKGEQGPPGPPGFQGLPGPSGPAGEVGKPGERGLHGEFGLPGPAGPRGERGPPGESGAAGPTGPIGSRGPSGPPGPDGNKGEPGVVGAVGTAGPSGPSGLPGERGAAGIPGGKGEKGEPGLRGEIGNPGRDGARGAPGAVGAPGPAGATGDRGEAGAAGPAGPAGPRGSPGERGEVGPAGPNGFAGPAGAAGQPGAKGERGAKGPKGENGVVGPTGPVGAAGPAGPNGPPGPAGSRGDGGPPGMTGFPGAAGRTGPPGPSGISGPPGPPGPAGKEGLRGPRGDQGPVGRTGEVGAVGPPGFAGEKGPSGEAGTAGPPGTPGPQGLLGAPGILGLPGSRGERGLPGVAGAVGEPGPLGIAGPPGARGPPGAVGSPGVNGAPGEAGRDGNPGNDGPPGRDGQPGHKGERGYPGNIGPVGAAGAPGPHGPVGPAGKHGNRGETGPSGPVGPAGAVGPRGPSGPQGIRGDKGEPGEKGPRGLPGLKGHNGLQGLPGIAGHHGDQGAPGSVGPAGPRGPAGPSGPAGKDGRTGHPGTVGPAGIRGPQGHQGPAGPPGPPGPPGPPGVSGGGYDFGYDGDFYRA
Chain of Type I collagen (P02452 162-1218 limits assumed): as the sequence (P02452 162-1218 limits assumed) above
Chain of Type I collagen (P08123 80-1119 limits assumed): as the sequence (P08123 80-1119 limits assumed) above
Chain of extradomain B of fibronectin (P02751 1271-1359 limits assumed): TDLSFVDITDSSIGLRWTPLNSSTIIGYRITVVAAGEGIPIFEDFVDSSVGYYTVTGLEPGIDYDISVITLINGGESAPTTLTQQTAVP
Chain of BSA (P02769 25-607): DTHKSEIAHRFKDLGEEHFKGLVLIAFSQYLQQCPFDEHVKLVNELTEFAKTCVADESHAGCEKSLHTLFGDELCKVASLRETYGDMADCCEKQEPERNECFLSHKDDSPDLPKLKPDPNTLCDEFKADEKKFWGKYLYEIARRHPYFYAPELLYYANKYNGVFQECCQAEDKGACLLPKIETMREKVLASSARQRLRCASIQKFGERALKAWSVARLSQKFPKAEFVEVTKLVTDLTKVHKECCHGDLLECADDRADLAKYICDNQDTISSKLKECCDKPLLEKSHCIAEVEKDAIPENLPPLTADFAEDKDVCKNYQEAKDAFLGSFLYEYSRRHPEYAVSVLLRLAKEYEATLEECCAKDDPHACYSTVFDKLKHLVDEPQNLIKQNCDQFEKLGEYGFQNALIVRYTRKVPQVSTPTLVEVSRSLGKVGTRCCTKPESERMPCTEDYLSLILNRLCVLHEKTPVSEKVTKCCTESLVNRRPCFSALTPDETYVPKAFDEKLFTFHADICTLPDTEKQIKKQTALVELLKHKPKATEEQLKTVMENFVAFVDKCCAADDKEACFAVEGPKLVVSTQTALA

Binding to control extradomain B of fibronectin (SPR) [1]	binding to type III collagen (ELISA) (human collagen type III)	Binding to control BSA (SPR) (BSA)	Binding to Type I collagen (SPR) (Type I collagen)	Binding to Type III collagen (SPR) (Type III collagen)	binding vs human type II collagen (ELISA, words) [3]	binding to type I collagen (ELISA) [4]	Substance	Solubility Soluble expression [2] [%]
not to controls	additionally	not to controls	additional binding	additional binding	specific binding	additionally	CID 211190: type II collagen binding protein of SEQ ID NO: 1 (monomer) (NAASHDEAQLSALVEIWDLPNLTTRQKQKFIYSLQRDPSVSKEVLGEAQKLNDSQAPK; Col2 binding protein 211190)	95
–	–	–	–	–	–	–	CID 211261: Type II Collagen binding protein of SEQ ID NO: 2 (monomer, motif 25Q-29Y-33W) (IAAKFDEAQSAADSEILHLPNLTEQQRHYFRRWLSDDPSVSTHILTQAQHLNDDQAPK; Col2 binding protein 211261)	95
